From patent US20110152358A1, “Compositions and Methods for Diagnosis and Treatment of Pancreatic Ductal Cancer” (priority 2008, published 2011)

What was measured:
Assay type in all cases: cell-based, human
T3M4 cells [1] = test: cisplatinum induced apoptosis, immunoblot of cleaved PARP and cleaved caspase-3, shRNA infected T3M4 cells; conditions: cisplatinum 10 νg/mL for 2, 6, or 24 hours
Protocol: Sham or 14-3-3σ transfected PANC-1 cells were incubated for 24 hours in complete medium in the absence or presence of 10 μg/mL of cisplatinum. Scrambled or 14-3-3σ specific shRNA infected T3M4 cells were incubated in complete medium for 24 hours that was supplemented with 10 μg/mL cisplatinum for the initial 2 or 6 hours, or the entire 24 hours. Both floating and adherent cells were then collected and lysed in the buffer containing protease inhibitors, subjected to 10% SDS-PAGE, and immunoblotted with specific antibodies against cleaved Poly (ADP-ribose) Polymerase (PARP) and cleaved caspase-3 (Cell Signaling Technology, Danvers, Mass.).

T3M4 cells [2] = test: in vitro wound-healing (migration) assay, shRNA infected T3M4 cells; conditions: serum free; 24 hours; percentage change in wound area
Protocol: To assess the motility properties, in vitro wound-healing assays or migration assays were performed. Cells were grown to confluence in 6-well tissue culture plates, serum starved overnight, and the monolayer was scratched with a 200 μL pipette tip generating two parallel wounds. The scratched wells were washed to remove cell debris and incubated for the next 24 hours in serum free media in the absence or presence 1 nmol/L EGF with or without the Src family kinase inhibitor PP2 (4-amino-5-(4-chlorophenyl)-7-(t-butyl)pyrazolo[3,4-d]pyrimidine) (Alexis, La Jolla, Calif.). To monitor cell migration, photographs were taken of each well at five marked locations under 40× magnification immediately after wounding (t0) and again 24 hours after wounding (t24), using an inverted microscope fitted with a digital camera (Nikon Diaphot 300, Nikon, Japan). The wound area of five matched pictures at t0 and t24 from each well were then measured using the ImageJ software (NIH, Bethedsa, Md.), and the percentage change in the wound area was calculated.

14-3-3σ = test: downregulation of 14-3-3σ by lentiviral shRNA in T3M4 cells (western blotting, Q-PCR); conditions: for 14-3-3σ levels: MOI of 40

B1: sh1: lentiviral shRNA targeting 14-3-3σ, SEQ ID NO: 24 (sense) and 25 (antisense) (nucleic acid)
sense: TCGAGACAACCTGACACTGTTTCAAGAGAACAGTGTCAGGTTGTCTCGTTTTTTC
antisense: TCGAGAAAAAACGAGACAACCTGACACTGTTCTCTTGAAACAGTGTCAGGTTGTCTCGA
- sensitivity of shRNA infected cells to cisplatinum versus control cells (T3M4 cells [1]): significantly more sensitive than control cells
- basal motility of shRNA infected cells (T3M4 cells [2]): 20%
- 14-3-3σ levels (14-3-3σ): reduce

B2: sh2: lentiviral shRNA targeting 14-3-3σ, SEQ ID NO: 26 (sense) and 27 (antisense) (nucleic acid)
sense: TGGAGAGAGCCAGTCTGATCTTCAAGAGAGATCAGACTGGCTCTCTCCTTTTTTC
antisense: TCGAGAAAAAAGGAGAGAGCCAGTCTGATCTCTCTTGAAGATCAGACTGGCTCTCTCCA
- sensitivity of sh2 infected cells to cisplatinum compared to sh1 (T3M4 cells [1]): relatively more sensitive
- sensitivity of shRNA infected cells to cisplatinum versus control cells (T3M4 cells [1]): significantly more sensitive than control cells
- basal motility of shRNA infected cells (T3M4 cells [2]): 20%
- knockdown of 14-3-3σ, sh2 relative to sh1 (14-3-3σ): more effective than sh1
- 14-3-3σ levels (14-3-3σ): reduce

B3: shCtrl: scrambled control shRNA not targeting any known mammalian gene, SEQ ID NO: 28 and 29 (nucleic acid)
chain 1: TACGAGCGAGGTGCCGATATTTCAAGAGAATATCGGCACCTCGCTCGTTTTTTTC
chain 2: TCGAGAAAAAAACGAGCGAGGTGCCGATATTCTCTTGAAATATCGGCACCTCGCTCGTA
- basal motility of shRNA infected cells (T3M4 cells [2]): 20%
- 14-3-3σ levels (14-3-3σ): did not alter
